In patent publication US9546201B2, “MUC-1 cytoplasmic domain peptides as inhibitors of cancer” (DANA-FARBER CANCER INSTITUTE, INC., priority 2008, dated 2017):
Where a SMILES comes first, the peptide text is derived from it. Where no end group is shown, it is not given here. [ ]: non-standard residue; d: D form.

Legend:
MUC1-C in ZR-75-1 cells = biological target: T1, MUC1-C in ZR-75-1 cells (Homo sapiens, UniProt P15941); assay: Immunoblot of whole cell and nuclear lysates, ZR-75-1; type: cell-based; details: 5 μM peptide for 3 d; for decreases in nuclear MUC1-C levels: nuclear lysates; for cellular MUC1-C levels: whole cell lysates
T1 construct: translated as a single polypeptide and cleaved into N- and C-terminal subunits in the endoplasmic reticulum; endogenous in cells; host or cells: ZR-75-1 and MCF-7 human breast cancer cells
T1 sequence (P15941 1098-1255 limits assumed): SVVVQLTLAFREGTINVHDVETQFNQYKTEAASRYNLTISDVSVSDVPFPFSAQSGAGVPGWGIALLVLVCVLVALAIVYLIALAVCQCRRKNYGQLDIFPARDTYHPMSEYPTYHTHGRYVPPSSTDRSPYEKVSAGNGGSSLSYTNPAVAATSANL
Experimental: FIGS. 2A-C. MUC1/CQC peptide blocks nuclear localization of MUC1-C. (FIG. 2A) ZR-75-1 cells were incubated with 5 μM FITC-labeled MUC1/CQC peptide for the indicated times and then analyzed by flow cytometry. The mean fluorescence index (MFI) is included in each of the panels. (FIGS. 2B-C) ZR-75-1 (FIG. 2B) and MCF-7 (FIG. 2C) cells were incubated in the presence of 5 μM MUC1/CQC or MUC1/AQA peptide for 3 d. Whole cell lysates (WCL) (left panels) and nuclear lysates (right panels) were immunoblotted with the indicated antibodies.
Whole cell and nuclear lysates were prepared as described (Leng et al., 2007). Soluble proteins were subjected to immunoprecipitation with anti-Flag (Sigma, St. Louis, Mo.). Immunoprecitates and soluble proteins were analyzed by immunoblotting with anti-His (Cell Signaling Technology, Danvers, Mass.), anti-GFP (Millipore, Danvers, Mass.), anti-Flag, anti-MUC1-C (Abl; NeoMarkers, Fremont, Calif.), anti-lamin B (EMD, La Jolla, Calif.) or anti-β-actin (Sigma). Reactivity was detected with horseradish peroxidase-conjugated second antibodies and chemiluminescence.
Human ZR-75-1 and MCF-7 breast cancer cells overexpress endogenous MUC1, and thus represent potential models for evaluating effects of the MUC1/CQC peptide (Ramasamy et al., 2007). To assess uptake, the ZR-75-1 cells were incubated with 5 μM FITC-MUC1/CQC peptide (FIG. 2A). […] Oligomerization of MUC1-C is necessary for its nuclear import (Leng et al., 2007). Treatment of ZR-75-1 cells with the MUC1/CQC or the MUC1/AQA peptide had no effect on cellular MUC1-C levels (FIG. 2B). […] These findings indicate that the MUC1/CQC peptide blocks MUC1-C oligomerization and thereby targeting of MUC1-C to the nucleus.

His-MUC1-CD oligomers = biological target: T2, His-MUC1-CD oligomers (Homo sapiens, UniProt P15941); assay: Oligomer formation of purified His-MUC1-CD (non-reducing SDS-polyacrylamide gel, anti-MUC1-C immunoblot); type: biochemical; details: 200 μM peptide, 1 h at room temperature
T2 sequence (P15941 1184-1255): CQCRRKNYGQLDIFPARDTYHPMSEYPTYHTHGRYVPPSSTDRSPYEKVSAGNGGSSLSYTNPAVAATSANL
Experimental: FIGS. 1A-D. MUC1/CQC peptide blocks MUC1 oligomerization. (FIG. 1A) Schematic representation of the MUC1-C subunit and the 72-amino acid sequence of MUC1-CD (SEQ ID NO: 1) are shown. The N-terminal 15 amino acids (shaded sequence; SEQ ID NO: 3) MUC1/CQC (SEQ ID NO: 63) and mutated MUC1/AQA (SEQ ID NO: 60) peptides were synthesized with the poly-dArg transduction domain. (FIG. 1B) His-MUC1-CD (1.4 mg/ml) was immobilized on a sensor chip in a BIAcore. MUC1/CQC was injected over the chip at 10 μM. Raw binding data were analyzed by BIAevaluation software version 3.0 and fit to a 1:1 Languir binding model. (FIG. 1C) Purified His-MUC1-CD (1.5 mg/ml) was incubated with PBS, 200 μM MUC1/CQC or 200 μM MUC1/AQA for 1 h at room temperature. The proteins were separated in a non-reducing SDS-polyacrylamide gel and analyzed by immunoblotting with anti-MUC1-C. (FIG. 1D) 293 cells were transiently transfected to express an empty vector or GFP-MUC1-CD and Flag-MUC1-CD. At 48 h after transfection, the cells were treated with 5 μM MUC1/CQC or MUC1/AQA for 3 d. The cells were then harvested for immunoblotting with anti-MUC1-C (left panel). […]
The MUC1 cytoplasmic domain (MUC1-CD) contains a CQC motif that is necessary for the formation of oligomers and nuclear localization (Leng et al., 2007). […] Purified His-tagged MUC1-CD forms oligomers as detected by electrophoresis in polyacrylamide gels (FIG. 1C). […]

| Compound | decreases in nuclear MUC1-C levels (MUC1-C in ZR-75-1 cells) | cellular MUC1-C levels (MUC1-C in ZR-75-1 cells) | oligomer formation of His-MUC1-CD (His-MUC1-CD oligomers) |
| --- | --- | --- | --- |
| MUC1/AQA: control peptide in which the CQC motif was altered to AQA, with poly-dArg transduction domain; SEQ ID NO: 60 ([dR][dR][dR][dR][dR][dR][dR][dR][dR]AQARRKNYGQLDIFP) [reference compound] | not | no effect | little if any effect |
| CC[C@H](C)[C@H](NC(=O)[C@H](CC(=O)O)NC(=O)[C@H](CC(C)C)NC(=O)[C@H](CCC(N)=O)NC(=O)CNC(=O)[C@H](Cc1ccc(O)cc1)NC(=O)[C@H](CC(N)=O)NC(=O)[C@H](CCCCN)NC(=O)[C@H](CCCNC(=N)N)NC(=O)[C@H](CCCNC(=N)N)NC(=O)[C@H](CS)NC(=O)[C@H](CCC(N)=O)NC(=O)[C@H](CS)NC(=O)[C@@H](CCCNC(=N)N)NC(=O)[C@@H](CCCNC(=N)N)NC(=O)[C@@H](CCCNC(=N)N)NC(=O)[C@@H](CCCNC(=N)N)NC(=O)[C@@H](CCCNC(=N)N)NC(=O)[C@@H](CCCNC(=N)N)NC(=O)[C@@H](CCCNC(=N)N)NC(=O)[C@@H](CCCNC(=N)N)NC(=O)[C@H](N)CCCNC(=N)N)C(=O)N[C@@H](Cc1ccccc1)C(=O)N1CCC[C@H]1C(=O)O [MUC1/CQC] (H-[dR][dR][dR][dR][dR][dR][dR][dR][dR]CQCRRKNYGQLDIFP-OH; N-terminus and C-terminus assumed) | decreases in nuclear MUC1-C levels | no effect | substantially decreased oligomer formation |
